The text below walks through data of paper PMC5892938, “SARNAclust: Semi-automatic detection of RNA protein binding motifs from immunoprecipitation data”.

The data set has as its target GST-SBP-SLBP (stem-loop binding protein) (Homo sapiens, UniProt Q14493 1-270). The experiment in a line: EMSA; 320 nM protein, 1 nM RNA, 1 mM Mg2+; EMSA: 10 mM HEPES pH 7.3, 20 mM KCl, 1 mM MgCl2, 20 mM DTT, 5% glycerol, 30 min, 4°C. RBNS: 25 mM Tris pH 7.5, 150 mM KCl, 0.1% Tween, 0.5 mg/mL BSA, 3 mM MgCl2, 1 mM DTT. As to conditions: protein: recombinant; tags: N-terminal GST and SBP (pGEX6P1-SBP); label: 3' biotin; hairpin. On the technique in general: In EMSA bound probe runs differently from free probe, usually more slowly.

B1: Consensus Loop Only B (CLB) (structured_RNA)
RNA: GGUCACGUCUCAAUCAACUCAACUCCAGGAGUUUACUCCUGUAAUCUCAACAGCUCGCAGUCAAG
On to B1, for which the binding result was “no binding”.
